Test results published in the domain aggregation screens of Martell et al. (2025).

Experiment: soluble fraction after stress (log2 fold change); higher = more stays soluble; pooled small domains, quantitative proteomics
Settings: stress: 75 degC
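Also: 20 min heating vs room temperature control held 20 min.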

Sequence	soluble fraction (log2)
HMGIIVDMSKIKQMLQLSEAGHSNRKIALELGINKETVNNYMQLIRNGRLDIRQLLKMDDPELERRFHA	-0.965
HMGIKLSDRQMQIVEIVKSQQPITSEQVAERLNLTRAALRSDLSILTMAGILEARPKVGYSLTGR	-1.97
HMGILPDDVKLNIKEAKKIGFPIMLKAIHGGGGRGMMIVQSEDEFADAMKITKTEAKNSFGNGDLYFEKFF	0.408
HMGITRQQALQQINQSASPKKILNASLGKRGSEFVWDIGYLSKSGKLNYVTYSFRSGEQLNAIKN	-1.03
HMGIVAGGTQSIATLRAIDTTDAQLYPDKILINVEDAGLYRLDRQSTATDDGNQVIKPTVGVGRWLKMTS	-0.15
HMGIVVDGTMTLEGVAERYGMSVGELARVIGVPPEYSNERLGRLRKSYEFEMDDIRIYIIQKQ	-1.54
HMGKAYMVPDVKNKSVNQAQLLLADKHMNGVVVDSSYVKELPAGIVLDQTPVGGMKVKEGRTVYLTINSD	0.156
HMGKDIYLTSGWVEKFDELNEFSNSVDNYDRLNQFGMYENAIIGDTGVIKITDEMIFDLYEKIQVPVEAGP	-0.0582
HMGKEDLTAAIKKMTLNDKLDIHKIVANFQTNDSEEVITAVKWLMENNYLLKIKNNYTWNTKEK	-0.901
HMGKHYLLKDDNGTITIYKILEDGTQEVYEKTEISTTYLPQTDNIGIKQGIRVNGDEALNELIENF	-0.0623
HMGKKGPELSENEKSIFSILSKSGSMDLTTLKEASGLSNKQWDKGIKGLGKHGLTKVIKTEDALLVEVV	0.0471
HMGKKYVPGMAVKLSAVPLYAASTSKVPSTHVTGTYYLWDDEVVRGRLRITNLKSRVGISGQVTGWIDKDR	-1.95
HMGKNIQAIRYKNNMTQDQVVAKLNLMGISITKSTYAKLETNRMNIKASELVALAKLFHTDINAFFSG	-3.12
HMGKNYYEILGITKSASEEQVRKAFRGLAMEWHPDRNRSADSEERFKEINEAYQVLIDPKKRQMYDQYGR	0.394
HMGKPSSEELEALGRRTLEENVDVVEEILGGRDPKGKKIKYLEGLMMRALRGQETPEAVRRTLEELIFK	-0.132
HMGKRGKEMQTAVLAILRASDRPYSAYELLESLKDIYPKIAPPTVYRALAALTQRGQIRRLESLNAFI	-0.221
HMGKRKDFTYTGNYFSEYKNQTFPSLSSFLKLVGKYENYGTIKRRVRFGWDIDEAILRENIN	-1.94
HMGKSKAAQSSLVRSIMHQISDKNRGPMPLSEIIDRASIQSIDEAIVRSLVSRMKEQGEIYEPSLGTYEF	-0.105
HMGKTIIQLATDYLIKNMQPKSLHDIESYVLTRKKIKKSSIGAILLSKPNIFGRTEDGLFGLRIWNNFQYT	-1.37
HMGKTRSTDRTRRAILDAASDLMGKHGTSVSLARIAEAAGMSKGGLLHHFPSRNDLIRALGED	0.011
HMGKVNTRNRNEGKFYKNGKKKPANWEYRFEAAPVNGKRQQISDAGYPTEKAAYEAGIAAYEKYNSAGSVN	-0.0957
HMGKVTILSNPVKDALVIMGLHNAETIDVRLFDNTGRLVMQGSQSRMDISSLSPGLYILQVNGKILKVIK	-3.2
HMGLASEVKTEDVLNEEKYDFEPDLIGNNNEAIYQNKQTGSYVLFDRNQNKVTKVLSAGEVLNHSKYNE	-0.138
HMGLDQNTLDRVDDINDTLATGIEIGPETRGTIEELNETLANGLKAGFDEETLARVDELLRVVEDGLK	0.0586
HMGLGQRIKARREALGLSQARLGEAVGVSLQAVSNWERDEYLPDTARLPLIARALGLTPGQLME	-0.182
HMGLKDTEVYMPDVRGLIEEEAQTKLKASFLTMKVSYTSSDEVKKGYVISQAPSADSVVLKGASVTVIVS	-2.56
HMGLLVPELTAEENVSLAAMIAGVPRQQARSISADLLNRLGLGQMLDRRMGEMSGGQAQRVAIAPIYGKF	-0.408
HMGLNVSYRMDGENVVETIIFSGATMIRTVTPTGTMTIKTIENGSTSTAKVNADYSVYKKIYEAQY	-2.69
HMGLPLETVVTHATKLEIVRDGRVSGSIGLSAGVKVDVIALEGDNLQVRYRSLSGRVPVAHTGLAALA	-1.58
HMGLPPIATGVNDNMSFSQAFAAARAEVGAGGAFEWHGRVYGTYYKNEWDGMSAQERHDFEIAAIRGS	-0.0369
